# pKd: −log10 of the molar value. Like-named read-outs stand apart in the source and are kept apart here.
# Assays:
# [1] = tested on: CCHF envelope peptides (individual peptide not specified) (Crimean-Congo hemorrhagic fever virus); experiment: ELONA
# [2] = tested on: outer membrane proteins (OMPs) (Rickettsia rickettsii); experiment: ELONA
# [3] = tested on: TBEV target (not specified) (Tick-borne encephalitis virus); experiment: ELONA
# [4] = tested on: WNV envelope peptide (West Nile virus); experiment: ELONA
# [5] = tested on: outer membrane proteins (OMPs) (Rickettsia typhi); experiment: ELONA
# [6] = tested on: outer membrane proteins (OMPs) (Rickettsia parkeri); experiment: ELONA
# [7] = tested on: outer membrane proteins (OMPs) (Rickettsia conorii); experiment: ELONA
# [8] = tested on: outer membrane proteins (OMPs) (Rickettsia belli); experiment: ELONA
# [9] = target: CCHF Peptide 1 (envelope surface peptide) (Crimean-Congo hemorrhagic fever virus) (UniProt Q8JSZ3); experiment: SPR
# Chain of UniProt Q8JSZ3 (Q8JSZ3 whole entry, looked up): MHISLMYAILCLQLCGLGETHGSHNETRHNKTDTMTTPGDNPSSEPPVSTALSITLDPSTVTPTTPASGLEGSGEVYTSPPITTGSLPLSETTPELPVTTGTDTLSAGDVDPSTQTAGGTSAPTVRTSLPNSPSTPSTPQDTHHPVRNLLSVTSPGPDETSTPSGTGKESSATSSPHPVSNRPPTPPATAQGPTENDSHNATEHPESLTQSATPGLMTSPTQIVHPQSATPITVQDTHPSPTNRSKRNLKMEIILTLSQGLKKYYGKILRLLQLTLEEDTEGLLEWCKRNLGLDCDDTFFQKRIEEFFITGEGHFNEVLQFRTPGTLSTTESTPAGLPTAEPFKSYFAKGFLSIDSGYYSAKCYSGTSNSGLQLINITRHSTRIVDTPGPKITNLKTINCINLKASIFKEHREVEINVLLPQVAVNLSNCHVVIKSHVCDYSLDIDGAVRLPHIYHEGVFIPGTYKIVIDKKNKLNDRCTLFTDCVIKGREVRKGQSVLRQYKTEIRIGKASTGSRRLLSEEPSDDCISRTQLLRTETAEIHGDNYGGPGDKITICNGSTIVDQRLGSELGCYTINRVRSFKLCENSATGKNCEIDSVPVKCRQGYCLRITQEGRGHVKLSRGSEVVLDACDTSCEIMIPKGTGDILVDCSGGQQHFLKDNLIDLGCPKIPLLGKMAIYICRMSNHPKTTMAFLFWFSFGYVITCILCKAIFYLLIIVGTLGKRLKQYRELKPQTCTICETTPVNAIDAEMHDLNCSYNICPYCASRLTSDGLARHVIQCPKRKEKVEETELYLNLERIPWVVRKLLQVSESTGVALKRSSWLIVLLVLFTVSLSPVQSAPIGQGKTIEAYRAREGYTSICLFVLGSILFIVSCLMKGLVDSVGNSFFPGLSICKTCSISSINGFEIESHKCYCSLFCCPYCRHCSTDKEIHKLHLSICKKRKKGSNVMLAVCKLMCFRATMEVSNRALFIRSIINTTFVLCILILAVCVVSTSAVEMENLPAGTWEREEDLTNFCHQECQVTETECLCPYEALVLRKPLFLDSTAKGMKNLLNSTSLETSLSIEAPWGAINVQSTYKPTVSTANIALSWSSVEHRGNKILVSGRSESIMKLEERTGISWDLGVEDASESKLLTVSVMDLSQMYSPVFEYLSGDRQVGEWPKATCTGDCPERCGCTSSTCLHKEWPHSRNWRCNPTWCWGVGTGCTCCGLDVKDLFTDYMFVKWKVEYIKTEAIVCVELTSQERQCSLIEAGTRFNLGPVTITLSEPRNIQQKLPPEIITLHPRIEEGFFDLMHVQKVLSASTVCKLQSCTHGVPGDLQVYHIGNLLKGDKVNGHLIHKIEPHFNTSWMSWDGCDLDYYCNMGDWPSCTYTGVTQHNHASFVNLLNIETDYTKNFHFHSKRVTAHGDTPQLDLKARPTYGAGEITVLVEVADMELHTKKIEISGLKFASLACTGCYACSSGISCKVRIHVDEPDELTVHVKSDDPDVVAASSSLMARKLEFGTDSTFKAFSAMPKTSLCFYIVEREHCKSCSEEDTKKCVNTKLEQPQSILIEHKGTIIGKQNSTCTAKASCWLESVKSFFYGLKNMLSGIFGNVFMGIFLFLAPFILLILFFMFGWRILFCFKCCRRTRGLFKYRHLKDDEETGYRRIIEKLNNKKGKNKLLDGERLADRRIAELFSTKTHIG
sequence,measurement,setting,value
ATACGGGAGCCAACACCAATGAGAGCAAAGATCCCAGGATACACTAATCCCTGTAGAGCAGGTGTGACGGAT [C1-3F],binding signal,[1],1.85 A405
ATACGGGAGCCAACACCACACACAGAGCGCCATGGACTCAGTCAGATGTGATGTAGAGCAGGTGTGACGGAT [R3-39F],binding signal,[2],2.12 A405
ATACGGGAGCCAACACCACACACAGAGCGCCATGGACTCAGTCAGATGTGATGTAGAGCAGGTGTGACGGAT [TBEV-8F],binding signal,[3],1.85 A405
ATACGGGAGCCAACACCACACGAACGGAGTGCACCGGGGAAGATACTCCAACGCAGAGCAGGTGTGACGGAT [TBEV-3F],binding signal,[3],1.8 A405
ATACGGGAGCCAACACCACAGACACCGAATGAGCAACACAACAACGGGACCCGTAGAGCAGGTGTGACGGAT [C2-8F],binding signal,[1],1.65 A405
ATACGGGAGCCAACACCACAGCTGACAATAGAAGGATATCCTGGGTACCGATGCAGAGCAGGTGTGACGGAT [C3-4F],binding signal,[1],2.67 A405
ATACGGGAGCCAACACCACAGCTGATATCGGATGGTCCGGCAGAGCAGGTGTGACGGAT [WNV 19F],binding signal,[4],2.73 A405
ATACGGGAGCCAACACCACCAACGAATACTACCAGGCCTAGCACAATACACAACAGAGCAGGTGTGACGGAT [R1-27bF],binding signal,[5],2.62 A405
ATACGGGAGCCAACACCACCATGCCCCTTTAAGTGAATAGACTAGTGGCCGTTGAGAGCAGGTGTGACGGAT [TBEV-5F],binding signal,[3],2.06 A405
ATACGGGAGCCAACACCACCCCGTCGCCAAGCACTTGGCTGGGCTCTAACGGCCAGAGCAGGTGTGACGGAT [WNV 18F],binding signal,[4],2 A405
ATACGGGAGCCAACACCACCCGTGGCCTTCACCCAGCCAGGGGCCCCGTCTCTGAGAGCAGGTGTGACGGAT [WNV 20F],binding signal,[4],2.54 A405
ATACGGGAGCCAACACCACCGCAGGAGTCCATCAGGGGTTGGCAGTCAGCGCTCAGAGCAGGTGTGACGGAT [TBEV-2F],binding signal,[3],2.31 A405
ATACGGGAGCCAACACCACTCGGCACCGCCCTTCCGTATCGGCGAGTAACGTACAGAGCAGGTGTGACGGAT [TBEV-1F],binding signal,[3],1.94 A405
ATACGGGAGCCAACACCAGAAAATGAATACTTCCCAAGCTTGTCAAGCAAGTAAGAGCAGGTGTGACGGAT [R2-5F],binding signal,[6],1.95 A405
ATACGGGAGCCAACACCAGAGACGTCTTAGCCTCGCGATCCCGTCCGTTGGCCCAGAGCAGGTGTGACGGAT [TBEV-6F],binding signal,[3],2.07 A405
ATACGGGAGCCAACACCAGCACAACTTAAGTGCAAGCAAATTCGGATTAACCAAAGAGCAGGTGTGACGGAT [R4-1F],binding signal,[7],1.99 A405
ATACGGGAGCCAACACCAGCACTGCAGTTAACATTTACGAAGAGGCTTTAATGCAGAGCAGGTGTGACGGAT [R5-39F],binding signal,[8],1.95 A405
ATACGGGAGCCAACACCAGCCAATTATACAGGTAGGTCAAAAAAGTTTAGGGGAAGAGCAGGTGTGACGGAT [TBEV-4F],binding signal,[3],1.88 A405
ATACGGGAGCCAACACCATAACAAATAACCACCCTCAATGCTAGATAGTGGCTTAGAGCAGGTGTGACGGAT [R5-23F],binding signal,[8],2.93 A405
ATACGGGAGCCAACACCATAACGGTTCCCTTAATGCGCTACCCACACTATACAAGAGCAGGTGTGACGGAT [R2-14F],binding signal,[6],2.08 A405
ATACGGGAGCCAACACCATAGTGTTGGGCCAATACGGTAACGTGTCCTTGGAGAGCAGGTGTGACGGAT [C1-1/7F],binding signal,[1],1.9 A405
ATACGGGAGCCAACACCATCCTCCCGCGACGTCTGGAGAACAGCCTCTACTTTAAGAGCAGGTGTGACGGAT [TBEV-7F],binding signal,[3],2.02 A405
ATACGGGAGCCAACACCATGGTGACGGACCTTGAGAGCAAGACCGCTACGATTCAGAGCAGGTGTGACGGAT [C1-9F],pKd,[9],11.09
same,binding signal,[1],2.24 A405
ATACGGGAGCCAACACCATGTCAGGACCTCCATCGCCCGGGCCCGCCGCCGCTGAGAGCAGGTGTGACGGAT [WNV 16F],binding signal,[4],2.45 A405
ATACGGGAGCCAACACCATTGACTTGGCCGTCTCTGACCCCTAGCACCCCTCGCAGAGCAGGTGTGACGGAT [TBEV-10F],binding signal,[3],1.95 A405
ATCCGTCACACCTGCTCTAAATAGATCACGCATAATGGCATTAGTATTAGTGTTGGTGTTGGCTCCCGTAT [R5-21bR],binding signal,[8],1.89 A405
ATCCGTCACACCTGCTCTACAGTTAGAGCTTGCCGTATGCCTTTGTTAACATAATGGTGTTGGCTCCCGTAT [R1-30R],binding signal,[5],2.85 A405
ATCCGTCACACCTGCTCTACATCACATCTGACTGAGTCCATGGCGCTCTGTGTGTGGTGTTGGCTCCCGTAT [R3-39R],binding signal,[2],2.05 A405
ATCCGTCACACCTGCTCTACATCACATCTGACTGAGTCCATGGCGCTCTGTGTGTGGTGTTGGCTCCCGTAT [TBEV-8R],binding signal,[3],2.43 A405
ATCCGTCACACCTGCTCTACGGCCCTGCACCACTTATTCTAGGCAGTGTTCTTCTGGTGTTGGCTCCCGTAT [C1-10R],binding signal,[1],1.62 A405
ATCCGTCACACCTGCTCTATACCAACGGGGGACGGTCTGAGCTAGTGACGCCCGTGGTGTTGGCTCCCGTAT [C3-7R],binding signal,[1],1.5 A405
ATCCGTCACACCTGCTCTATGAGTCTATCCAGTTCTAAAAGTTCCGCTCTTTATTGGTGTTGGCTCCCGTAT [C1-1R],binding signal,[1],1.99 A405
ATCCGTCACACCTGCTCTCAACGGCCACTAGTCTATTCACTTAAAGGGGCATGGTGGTGTTGGCTCCCGTAT [TBEV-5R],binding signal,[3],1.93 A405
ATCCGTCACACCTGCTCTCAGAGACGGGGCCCCTGGCTGGGTGAAGGCCACGGGTGGTGTTGGCTCCCGTAT [WNV 20R],binding signal,[4],2.47 A405
ATCCGTCACACCTGCTCTCAGCGGCGGCGGGCCCGGGCGATGGAGGTCCTGACATGGTGTTGGCTCCCGTAT [WNV 16R],binding signal,[4],2.25 A405
ATCCGTCACACCTGCTCTCCAAGGACACGTCACCGTATTGGCCCAACACTATGGTGTTGGCTCCCGTAT [C3-8R],binding signal,[1],1.48 A405
ATCCGTCACACCTGCTCTCCAAGGACACGTTACCGTATTGGCCCAACACTATGGTGTTGGCTCCCGTAT [C1-1/7R],binding signal,[1],2.05 A405
ATCCGTCACACCTGCTCTCCAGATTTGGTGTTATGCTCTTGTTTGGCTTGGACTTGGTGTTGGCTCCCGTAT [R4-14R],binding signal,[7],2.05 A405
ATCCGTCACACCTGCTCTCGGGACGCGAGCGGCCTGCGGGAACCAGGCGGGGGCTGGTGTTGGCTCCCGTAT [C3-6R],binding signal,[1],2.48 A405
ATCCGTCACACCTGCTCTGAATCGTAGCGGTCTTGCTCTCAAGGTCCGTCACCATGGTGTTGGCTCCCGTAT [C1-9R],binding signal,[1],1.56 A405
ATCCGTCACACCTGCTCTGAGCGCTGACTGCCAACCCCTGATGGACTCCTGCGGTGGTGTTGGCTCCCGTAT [TBEV-2R],binding signal,[3],2.6 A405
ATCCGTCACACCTGCTCTGCAAAGAGGTCGTAGTGCCGTGTCCGGTCGGATACCTGGTGTTGGCTCCCGTAT [C2-10R],binding signal,[1],1.66 A405
ATCCGTCACACCTGCTCTGCATCGGTACCCAGGATATCCTTCTATTGTCAGCTGTGGTGTTGGCTCCCGTAT [C3-4R],binding signal,[1],2.47 A405
ATCCGTCACACCTGCTCTGCCGGACCATCCGATATCAGCTGTGGTGTTGGCTCCCGTAT [WNV 19R],binding signal,[4],2.18 A405
ATCCGTCACACCTGCTCTGCGAGGGGTGCTAGGGGTCAGAGACGGCCAAGTCAATGGTGTTGGCTCCCGTAT [TBEV-10R],binding signal,[3],1.82 A405
ATCCGTCACACCTGCTCTGCGTTGGAGTATCTTCCCCGGTGCACTCCGTTCGTGTGGTGTTGGCTCCCGTAT [TBEV-3R],binding signal,[3],1.91 A405
ATCCGTCACACCTGCTCTGGCCGTTAGAGCCCAGCCAAGTGCTTGGCGACGGGGTGGTGTTGGCTCCCGTAT [WNV 18R],binding signal,[4]; also positive in lateral flow (FIG. 9C),2.65 A405
ATCCGTCACACCTGCTCTGGGCAGCACTACCGGTGTCGTTGTGTTGGCATTTCTTGGTGTTGGCTCCCGTAT [C1-6R],binding signal,[1],1.95 A405
ATCCGTCACACCTGCTCTGGGCCAACGGACGGGATCGCGAGGCTAAGACGTCTCTGGTGTTGGCTCCCGTAT [TBEV-6R],binding signal,[3],2.12 A405
ATCCGTCACACCTGCTCTGTACGTTACTCGCCGATACGGAAGGGCGGTGCCGAGTGGTGTTGGCTCCCGTAT [TBEV-1R],binding signal,[3],2.15 A405
ATCCGTCACACCTGCTCTTAAAGTAGAGGCTGTTCTCCAGACGTCGCGGGAGGATGGTGTTGGCTCCCGTAT [TBEV-7R],binding signal,[3],1.97 A405
ATCCGTCACACCTGCTCTTCCCCTAAACTTTTTTGACCTACCTGTATAATTGGCTGGTGTTGGCTCCCGTAT [TBEV-4R],binding signal,[3],2.12 A405
ATCCGTCACACCTGCTCTTGCTTATATTTAATTTTTTTCCCAAACTAGTAAGATTGGTGTTGGCTCCCGTAT [R1-21R],binding signal,[5],2.88 A405
ATCCGTCACACCTGCTCTTTCACTAAGCTGACTTTTCACCTCGTCTTCGTGCCGTGGTGTTGGCTCCCGTAT [R3-40R],binding signal,[2],1.99 A405
ATCCGTCACACCTGCTCTTTGGTTAATCCGAATTTGCTTGCACTTAAGTTGTGCTGGTGTTGGCTCCCGTAT [R4-1R],binding signal,[7],2.12 A405
ATCCGTCACACCTGCTCTTTTCCTATGAATGGTAATCAATTAGAGTCTATATCTTGGTGTTGGCTCCCGTAT [R2-17R],binding signal,[6],2.05 A405
